Data published in paper PMC7744550, “Structurally distinct telomere-binding proteins in Ustilago maydis execute non-overlapping functions in telomere replication, recombination, and protection”.

Assays:
[1] = biological target: T1, Tay1-FG (Ustilago maydis) (UniProt A0A0D1CTG7); experiment: EMSA; conditions: 25 mM HEPES-KOH pH 7.5, 5% glycerol, 3 mM MgCl2, 0.1 mM EDTA, 1 mM DTT, 0.5 µg/µl BSA, 1-10 nM 32P probe, 22 °C 15 min; 6% native PAGE in 0.2x TBE
T1 sequence: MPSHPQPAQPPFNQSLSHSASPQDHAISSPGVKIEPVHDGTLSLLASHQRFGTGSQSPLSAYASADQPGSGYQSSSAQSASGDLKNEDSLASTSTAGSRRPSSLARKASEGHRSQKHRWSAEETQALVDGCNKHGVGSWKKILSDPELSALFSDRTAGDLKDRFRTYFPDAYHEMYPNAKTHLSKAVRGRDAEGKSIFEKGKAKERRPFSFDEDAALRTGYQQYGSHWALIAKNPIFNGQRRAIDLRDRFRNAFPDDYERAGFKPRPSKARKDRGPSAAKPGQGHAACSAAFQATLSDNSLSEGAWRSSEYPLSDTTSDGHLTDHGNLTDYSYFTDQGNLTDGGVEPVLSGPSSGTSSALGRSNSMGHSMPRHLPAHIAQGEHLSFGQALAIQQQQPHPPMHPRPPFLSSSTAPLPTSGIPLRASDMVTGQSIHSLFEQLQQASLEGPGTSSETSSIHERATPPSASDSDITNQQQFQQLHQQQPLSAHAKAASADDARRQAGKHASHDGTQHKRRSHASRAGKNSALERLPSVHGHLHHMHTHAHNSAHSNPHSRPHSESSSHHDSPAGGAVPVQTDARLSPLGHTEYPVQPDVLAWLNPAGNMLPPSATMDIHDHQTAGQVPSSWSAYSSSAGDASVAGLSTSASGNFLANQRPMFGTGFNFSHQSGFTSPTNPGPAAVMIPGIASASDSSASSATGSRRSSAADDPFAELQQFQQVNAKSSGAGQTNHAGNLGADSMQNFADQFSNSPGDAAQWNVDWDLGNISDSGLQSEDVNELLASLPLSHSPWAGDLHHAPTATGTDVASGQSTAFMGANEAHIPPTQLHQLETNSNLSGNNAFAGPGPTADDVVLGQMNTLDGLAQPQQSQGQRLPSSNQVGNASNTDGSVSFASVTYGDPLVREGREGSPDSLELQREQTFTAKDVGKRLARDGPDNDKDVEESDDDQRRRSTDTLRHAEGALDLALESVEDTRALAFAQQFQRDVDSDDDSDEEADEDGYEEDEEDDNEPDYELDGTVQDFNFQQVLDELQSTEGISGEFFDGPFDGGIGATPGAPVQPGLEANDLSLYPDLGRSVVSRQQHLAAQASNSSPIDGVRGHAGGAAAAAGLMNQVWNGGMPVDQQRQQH

[2] = biological target: T2, Tay1N274-FG (Ustilago maydis) (UniProt A0A0D1CTG7); experiment: EMSA; conditions: 25 mM HEPES-KOH pH 7.5, 5% glycerol, 3 mM MgCl2, 0.1 mM EDTA, 1 mM DTT, 0.5 µg/µl BSA, 1-10 nM 32P probe, 22 °C 15 min; 6% native PAGE in 0.2x TBE
T2 sequence: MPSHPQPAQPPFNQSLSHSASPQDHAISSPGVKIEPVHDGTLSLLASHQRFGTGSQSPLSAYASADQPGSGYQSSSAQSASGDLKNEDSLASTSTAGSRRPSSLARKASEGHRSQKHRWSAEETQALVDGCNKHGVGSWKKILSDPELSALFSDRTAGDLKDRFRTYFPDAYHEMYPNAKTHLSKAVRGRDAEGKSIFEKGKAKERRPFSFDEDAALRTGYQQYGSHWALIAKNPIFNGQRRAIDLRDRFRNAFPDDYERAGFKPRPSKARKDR

[3] = biological target: T3, Trf2∆N-FG3 (Ustilago maydis) (UniProt A0A0D1E1Z3); experiment: EMSA; conditions: 25 mM HEPES-KOH pH 7.5, 5% glycerol, 3 mM MgCl2, 0.1 mM EDTA, 1 mM DTT, 0.5 µg/µl BSA, 1-10 nM 32P probe, 22 °C 15 min; 6% native PAGE in 0.2x TBE
T3 sequence: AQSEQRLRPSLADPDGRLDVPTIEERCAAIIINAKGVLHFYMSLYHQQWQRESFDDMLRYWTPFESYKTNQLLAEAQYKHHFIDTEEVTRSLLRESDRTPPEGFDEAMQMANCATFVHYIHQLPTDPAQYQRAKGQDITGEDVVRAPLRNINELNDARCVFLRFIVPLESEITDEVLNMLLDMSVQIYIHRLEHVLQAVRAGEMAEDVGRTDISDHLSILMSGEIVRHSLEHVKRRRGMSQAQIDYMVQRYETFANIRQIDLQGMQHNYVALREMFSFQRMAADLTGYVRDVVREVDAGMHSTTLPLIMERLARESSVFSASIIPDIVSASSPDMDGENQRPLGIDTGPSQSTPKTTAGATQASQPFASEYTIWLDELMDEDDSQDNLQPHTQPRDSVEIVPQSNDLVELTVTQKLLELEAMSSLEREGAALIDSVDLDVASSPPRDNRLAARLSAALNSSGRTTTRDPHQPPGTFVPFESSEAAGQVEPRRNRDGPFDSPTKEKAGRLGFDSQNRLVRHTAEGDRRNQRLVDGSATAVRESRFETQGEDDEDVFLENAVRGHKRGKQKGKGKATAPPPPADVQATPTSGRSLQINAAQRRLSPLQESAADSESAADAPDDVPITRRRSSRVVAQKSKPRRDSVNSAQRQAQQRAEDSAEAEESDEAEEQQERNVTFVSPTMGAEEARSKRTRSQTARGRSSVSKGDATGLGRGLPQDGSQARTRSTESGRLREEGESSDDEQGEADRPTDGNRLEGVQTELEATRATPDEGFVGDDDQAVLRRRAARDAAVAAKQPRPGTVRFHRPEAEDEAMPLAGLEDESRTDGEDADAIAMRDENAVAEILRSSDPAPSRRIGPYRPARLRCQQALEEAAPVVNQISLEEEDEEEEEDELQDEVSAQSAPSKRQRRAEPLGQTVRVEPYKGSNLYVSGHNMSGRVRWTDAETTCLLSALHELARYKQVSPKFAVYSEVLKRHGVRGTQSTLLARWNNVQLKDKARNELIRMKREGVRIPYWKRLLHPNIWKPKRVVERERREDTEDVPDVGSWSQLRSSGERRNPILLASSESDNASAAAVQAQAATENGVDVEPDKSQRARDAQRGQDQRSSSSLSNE

Tay1-FG = Tay1-FG (Ustilago maydis, UniProt A0A0D1CTG7 1-1127); experiment: competition; unlabeled competitor; 25 mM HEPES-KOH pH 7.5, 5% glycerol, 3 mM MgCl2, 0.1 mM EDTA, 1 mM DTT, 0.5 µg/µl BSA, 1-10 nM 32P probe, 22 °C 15 min; 6% native PAGE in 0.2x TBE; conditions: protein: recombinant; tags: C-terminal FLAG (His-SUMO cleaved by ULP1); blunt
Trf2∆N-FG3 = Trf2∆N-FG3 (Ustilago maydis, UniProt A0A0D1E1Z3 416-1528); experiment: EMSA; 25 mM HEPES-KOH pH 7.5, 5% glycerol, 3 mM MgCl2, 0.1 mM EDTA, 1 mM DTT, 0.5 µg/µl BSA, 1-10 nM 32P probe, 22 °C 15 min; 6% native PAGE in 0.2x TBE; conditions: protein: recombinant; tags: C-terminal FG3 (His-SUMO cleaved by ULP1)

In the case of “TTAGGGTTAGGGTTAGGGTTAGGG (double strand) [TTAGGG4 ds]”, the Kd [1] is reported as 27 nM, the Kd [2] is reported as 130 nM and the Kd [3] is reported as 20 nM.

Molecule Tay1-FG (natural protein) has a helicase activity of Blm (12.5 nM) on a non-telomeric DNA substrate with Tay1 at 0, 10, 30 and 90 nM (Blm-FG (Ustilago maydis)) of 2.5 fold.

B1: CgTEL (dsDNA)
DNA 1: TGGGGTCTGGGTGCTG
DNA 2: CAGCACCCAGACCCCA
B1: no binding (Tay1-FG).

TTAGGGTTAGGGTTAGGGTTAGGG (ssDNA) [TTAGGG4 G-strand]: no binding (Trf2∆N-FG3).
